# B1: r11_951_TrROS_Hall (parent)
# chain: KKKYVIKVYFEDTGKEVEIEAESKEEALEAAKRLAEELGLKIKKVEIYP
# Variants of: B1
# Assay: folding stability dG (cDNA display proteolysis); higher = more stable
# Settings: PBS, room temperature
row,Variant,folding stability dG [kcal/mol]
1,KKKYVIKVYFEDTGKEVEIEAESKHEALEAAKRLAEELGLKIKKVEIYP [E25H],4.39
2,KKKYVIKVYFEDTGKEVEIEAESKFEALEAAKRLAEELGLKIKKVEIYP [E25F],4.34
3,KKKYVIKVYFEDTGKEVEIEAESKAEALEAAKRLAEELGLKIKKVEIYP [E25A],4.4
4,KKKYVIKVYFEDTGKEVEIEAESKIEALEAAKRLAEELGLKIKKVEIYP [E25I],4.27
5,KKKYVIKVYFEDTGKEVEIEAESMEEALEAAKRLAEELGLKIKKVEIYP [K24M],4.46
6,KKKYVIKVYFEDTGKEVEIEAESIEEALEAAKRLAEELGLKIKKVEIYP [K24I],4.52
7,KKKYVIKVYFEDTGKEVEIEAESQEEALEAAKRLAEELGLKIKKVEIYP [K24Q],4.38
8,KKKYVIKVYFEDTGKEVEIEAESLEEALEAAKRLAEELGLKIKKVEIYP [K24L],4.48
9,KKKYVIKVYFEDTGKEVEIEAESHEEALEAAKRLAEELGLKIKKVEIYP [K24H],4.45
10,KKKYVIKVYFEDTGKEVEIEAESDEEALEAAKRLAEELGLKIKKVEIYP [K24D],4.37
11,KKKYVIKVYFEDTGKEVEIEAESTEEALEAAKRLAEELGLKIKKVEIYP [K24T],4.57
12,KKKYVIKVYFEDTGKEVEIEAESCEEALEAAKRLAEELGLKIKKVEIYP [K24C],4.53
13,KKKYVIKVYFEDTGKEVEIEAESEEEALEAAKRLAEELGLKIKKVEIYP [K24E],4.54
14,KKKYVIKVYFEDTGKEVEIEAESGEEALEAAKRLAEELGLKIKKVEIYP [K24G],4.41
15,KKKYVIKVYFEDTGKEVEIEAESREEALEAAKRLAEELGLKIKKVEIYP [K24R],4.3
16,KKKYVIKVYFEDTGKEVEIEAESSEEALEAAKRLAEELGLKIKKVEIYP [K24S],4.29
17,KKKYVIKVYFEDTGKEVEIEAESPEEALEAAKRLAEELGLKIKKVEIYP [K24P],4.19
18,KKKYVIKVYFEDTGKEVEIEAESFEEALEAAKRLAEELGLKIKKVEIYP [K24F],4.32
19,KKKYVIKVYFEDTGKEVEIEAESVEEALEAAKRLAEELGLKIKKVEIYP [K24V],4.6
20,KKKYVIKVYFEDTGKEVEIEAESNEEALEAAKRLAEELGLKIKKVEIYP [K24N],4.46
21,KKKYVIKVYFEDTGKEVEIEAESAEEALEAAKRLAEELGLKIKKVEIYP [K24A],4.55
22,KKKYVIKVYFEDTGKEVEIEAESYEEALEAAKRLAEELGLKIKKVEIYP [K24Y],4.5
23,KKKYVIKVYFEDTGKEVEIEAESWEEALEAAKRLAEELGLKIKKVEIYP [K24W],4.51
24,KKKYVIKVYFEDTGKEVEIEAESKETALEAAKRLAEELGLKIKKVEIYP [E26T],4.28
25,KKKYVIKVYFEDTGKEVEIEAESKEDALEAAKRLAEELGLKIKKVEIYP [E26D],4.32
26,KKKYVIKVYFEDTGKEVEIEAESKEGALEAAKRLAEELGLKIKKVEIYP [E26G],4.58
27,KKKYVIKVYFEDTGKEVEIEAESKEPALEAAKRLAEELGLKIKKVEIYP [E26P],3.07

row,Variant,folding stability dG [kcal/mol]
1,KKKYVIKVYFEDTGKEVEIEAESKEAALEAAKRLAEELGLKIKKVEIYP [E26A],4.66
2,KKKYVIKVYFEDTGKEVEIEAESKECALEAAKRLAEELGLKIKKVEIYP [E26C],4.23
3,KKKYVIKVYFEDTGKEVEIEAESKEVALEAAKRLAEELGLKIKKVEIYP [E26V],4.24
4,KKKYVIKVYFEDTGKEVEIEAESKEWALEAAKRLAEELGLKIKKVEIYP [E26W],4.92
5,KKKYVIKVYFEDTGKEVEIEAESKEIALEAAKRLAEELGLKIKKVEIYP [E26I],4.22
6,KKKYVIKVYFEDTGKEVEIEAESKEKALEAAKRLAEELGLKIKKVEIYP [E26K],4.24
7,KKKYVIKVYFEDTGKEVEIEAESKELALEAAKRLAEELGLKIKKVEIYP [E26L],4.46
8,KKKYVIKVYFEDTGKEVEIEAESKESALEAAKRLAEELGLKIKKVEIYP [E26S],4.39
9,KKKYVIKVYFEDTGKEVEIEAESKEMALEAAKRLAEELGLKIKKVEIYP [E26M],4.38
10,KKKYVIKVYFEDTGKEVEIEAESKEYALEAAKRLAEELGLKIKKVEIYP [E26Y],4.83
11,KKKYVIKVYFEDTGKEVEIEAESKEQALEAAKRLAEELGLKIKKVEIYP [E26Q],4.36
12,KKKYVIKVYFEDTGKEVEIEAESKERALEAAKRLAEELGLKIKKVEIYP [E26R],4.39
13,KKKYVIKVYFEDTGKEVEIEAESKEHALEAAKRLAEELGLKIKKVEIYP [E26H],4.5
14,KKKYVIKVYFEDTGKEVEIEAESKEFALEAAKRLAEELGLKIKKVEIYP [E26F],4.83
15,KKKYVIKVYFEDTGKEVEIEAESKENALEAAKRLAEELGLKIKKVEIYP [E26N],4.33
16,KKKYVIKVYFEDTGKEVEIEASSKEEALEAAKRLAEELGLKIKKVEIYP [E22S],4.25
17,KKKYVIKVYFEDTGKEVEIEARSKEEALEAAKRLAEELGLKIKKVEIYP [E22R],4.18
18,KKKYVIKVYFEDTGKEVEIEAWSKEEALEAAKRLAEELGLKIKKVEIYP [E22W],4.64
19,KKKYVIKVYFEDTGKEVEIEAPSKEEALEAAKRLAEELGLKIKKVEIYP [E22P],4.4
20,KKKYVIKVYFEDTGKEVEIEAVSKEEALEAAKRLAEELGLKIKKVEIYP [E22V],4.29
21,KKKYVIKVYFEDTGKEVEIEAYSKEEALEAAKRLAEELGLKIKKVEIYP [E22Y],4.52
22,KKKYVIKVYFEDTGKEVEIEAQSKEEALEAAKRLAEELGLKIKKVEIYP [E22Q],4.11
23,KKKYVIKVYFEDTGKEVEIEATSKEEALEAAKRLAEELGLKIKKVEIYP [E22T],4.23
24,KKKYVIKVYFEDTGKEVEIEAESKEEADEAAKRLAEELGLKIKKVEIYP [L28D],4.11
25,KKKYVIKVYFEDTGKEVEIEAESKEEACEAAKRLAEELGLKIKKVEIYP [L28C],4.12
26,KKKYVIKVYFEDTGKEVEIEAESKEEAAEAAKRLAEELGLKIKKVEIYP [L28A],4.28

# — the MegaScale stability set (Tsuboyama et al. 2023)
